The target in one data set is T1, hMAT2A (Homo sapiens, UniProt P31153, I322V).
T1 construct: gene MAT2A; pNIC28-Bsa4-hMAT2A, His-tagged, E. coli Rosetta 2, Ni-NTA; rows are the I322V mutant
The experiment in a line: HILIC HPLC of AdoMet analogue formation. The class given is biochemical. Conditions: ATP 1.5 mM, substrate 1.5 mM, MgCl2 3 mM, pH 7.4, 30 °C.

Substrate in data set [1]: C/C1=C\[C@@H](C)C(=O)C[C@@H]([C@H](C)C[C@@H]2CC[C@@H](O)[C@H](O)C2)OC(=O)[C@@H]2CCCCN2C(=O)C(=O)[C@]2(O)O[C@@H](CC[C@H]2C)C[C@H](O)/C(C)=C/C=C/C=C/[C@@H](C)C[C@@H](C)C(=O)[C@H](O)[C@@H]1O
Put plainly: RP-HPLC methyltransferase assay. The class given is biochemical, Streptomyces hygroscopicus. The following applies: AdoMet 500 µM; BC231 2.5–250 µM.

T1 sequence (P31153 whole entry I322V): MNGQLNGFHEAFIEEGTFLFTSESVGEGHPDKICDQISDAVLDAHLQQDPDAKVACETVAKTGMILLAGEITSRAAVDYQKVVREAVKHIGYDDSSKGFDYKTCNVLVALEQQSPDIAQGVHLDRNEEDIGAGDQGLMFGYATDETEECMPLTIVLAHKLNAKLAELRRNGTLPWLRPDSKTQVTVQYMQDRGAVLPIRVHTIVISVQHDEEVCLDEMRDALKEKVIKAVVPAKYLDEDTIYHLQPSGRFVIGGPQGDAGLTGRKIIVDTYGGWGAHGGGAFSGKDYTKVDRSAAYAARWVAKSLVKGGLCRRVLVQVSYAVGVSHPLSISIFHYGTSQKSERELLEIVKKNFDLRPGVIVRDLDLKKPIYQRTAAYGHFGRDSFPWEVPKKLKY

For `C=CCSCC[C@H](N)C(=O)O` [S-allyl-L-homocysteine], the “HILIC HPLC of AdoMet analogue formation” value at hMAT2A is “evaluated with L-ethionine and S-allyl-L-homocysteine (Sahc) as substrates”.

B1: RapM (Streptomyces hygroscopicus) (protein)
chain: MIQPDVVTAFTAVRDINLDEPGTPQAETKAATFKSASSSIYDLAASMSAKGQLWNWGVHDSEFVAEIEARLPGFTEYGTDGFSEQLYYLALRDLPKGLESCDGRTVLEVGCGMGEGLNFLSRLVPTARMTGLDLAPKAIASATATLSRGDTLRFVQGDAEELPFEDSSVDVLVNIESSHTYPNLGRFLREAARALRRGGALSHIDVFTRQRLEAMRRITTEIPELKWVSDHDISDQVRAAVRRRMPPDSHLRSTLNKQRMNRLARTLALHSQITVFGGTFADYQPPASVKMLSRLGLVPPMDSLPMETYRHQIAVRV
notes: wild-type rapM in pET28a(+) (NdeI/XhoI), N-terminal His6 tag, E. coli BL21 (DE3), Ni-NTA
As for B1, in data set [1], the Km – broadly, the substrate concentration at which the rate is half of its maximum – stood at 48.9 ± 7.1 µM and the kcat was found to be 1.47 ± 0.072 min^–1.

(Values after paper PMC5729408, “Site-specific bioalkylation of rapamycin by the RapM 16-O-methyltransferase” (Chemical Science, 2015).)
